In article PMC4298132:
Each block holds one molecule with its values, some of them ahead of it. Square brackets hold non-standard residues; d marks the D form. Ends that are not written are not given here. pS = N[C@@H](COP(=O)(O)O)C(=O)O

What was measured:
[1] = molecular target: His-SUMO-tagged MLL3 SET domain (UniProt Q8NEZ4); assay: pull-down
Ash2L SPRY domain [2] = molecular target: Ash2L SPRY domain (UniProt Q9UBL3); assay: isothermal titration calorimetry; conditions: reference: unmodified RbBP5 344-357 peptide; sites S350
Ash2L SPRY domain [3] = assay: ITC

Sequence of RbBP5 344-357 (Q15291 whole entry, looked up, change not shown, the tested form may be a part): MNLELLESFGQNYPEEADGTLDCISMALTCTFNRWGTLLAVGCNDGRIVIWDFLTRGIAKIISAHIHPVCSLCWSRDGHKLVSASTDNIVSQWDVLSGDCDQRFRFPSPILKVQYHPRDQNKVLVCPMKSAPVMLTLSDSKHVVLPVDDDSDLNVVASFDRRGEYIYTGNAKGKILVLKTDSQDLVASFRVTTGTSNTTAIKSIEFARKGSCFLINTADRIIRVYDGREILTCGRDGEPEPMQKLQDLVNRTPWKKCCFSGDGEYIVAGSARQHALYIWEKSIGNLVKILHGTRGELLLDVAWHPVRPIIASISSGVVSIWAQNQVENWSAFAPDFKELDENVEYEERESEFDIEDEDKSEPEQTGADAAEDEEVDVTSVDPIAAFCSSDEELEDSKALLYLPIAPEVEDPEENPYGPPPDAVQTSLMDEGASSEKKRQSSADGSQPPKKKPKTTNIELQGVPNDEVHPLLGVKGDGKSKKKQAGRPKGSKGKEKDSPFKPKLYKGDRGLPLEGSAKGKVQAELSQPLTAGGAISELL
Sequence of UniProt Q9UBL3 (Q9UBL3 380-598): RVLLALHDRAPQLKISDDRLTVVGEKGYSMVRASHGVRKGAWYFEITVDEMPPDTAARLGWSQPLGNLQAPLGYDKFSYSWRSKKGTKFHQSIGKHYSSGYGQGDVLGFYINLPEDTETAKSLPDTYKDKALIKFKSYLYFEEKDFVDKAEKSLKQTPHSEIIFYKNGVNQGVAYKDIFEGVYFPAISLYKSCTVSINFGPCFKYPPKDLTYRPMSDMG
Sequence of UniProt Q8NEZ4 (Q8NEZ4 4771-4887): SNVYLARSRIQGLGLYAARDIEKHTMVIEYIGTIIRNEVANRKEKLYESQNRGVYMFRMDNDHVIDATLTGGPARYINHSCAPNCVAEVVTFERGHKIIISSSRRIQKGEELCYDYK

- fold increase in binding against Ash2L/RbBP5 [1]: 5 fold
Molecule: Ash2L/RbBP5^phos heterodimer (from UniProt Q9UBL3 1-628; Q15291 1-538) (complex)

- fold change (Ash2L SPRY domain [2]): stronger
Molecule: RbBP5 344-357 (from UniProt Q15291) pS350 RbBP5 344-357 peptide

- fold higher affinity against the unmodified peptide (Ash2L SPRY domain [3]): 15 fold
Molecule: EYEERE[pS]EFDIEDE [phosphorylated peptide RbBP5 344-357 (phospho-S350), Q15291 344-357]
